From patent US20250018014A1, “METHOD FOR TREATING AND/OR PREVENTING REGNASE-1-RELATED DISEASE” (OSAKA UNIVERSITY, priority 2018, published 2025)
Where two headings read alike, the source gives them in different places. Residues, ends and D or L forms follow the SMILES beside them.

B1: PP1 (peptide)
peptide: XTSWYKVNWGQD
HELM: PEPTIDE1{[meA].T.S.W.Y.K.V.N.W.G.Q.D.[C1CCN([*:1])C1]}$PEPTIDE1,PEPTIDE1,1:R1-12:R3$$$V2.0
SMILES: CC(C)[C@@H]1NC(=O)[C@H](CCCCN)NC(=O)[C@H](Cc2ccc(O)cc2)NC(=O)[C@H](Cc2c[nH]c3ccccc23)NC(=O)[C@H](CO)NC(=O)[C@H]([C@@H](C)O)NC(=O)[C@H](C)N(C)C(=O)C[C@@H](C(=O)N2CCCC2)NC(=O)[C@H](CCC(N)=O)NC(=O)CNC(=O)[C@H](Cc2c[nH]c3ccccc23)NC(=O)[C@H](CC(N)=O)NC1=O

How the values were obtained:
[1] = molecular target: T1, FL_Reg1 (full-length human Regnase-1) phosphorylation by TBK1 (Homo sapiens, UniProt Q5D1E8); assay: Regnase-1 phosphorylation inhibition by compounds (AlphaScreen), TBK1, full-length Regnase-1; type: biochemical; conditions: Table 13; phosphorylation by TBK1; read-out: Phosphorylation inhibition FL_Reg1, 50% inhibition concentration (TBK1)
T1 construct: made in house; host or cells: Expi293 cells
T1 sequence (Q5D1E8 1-599): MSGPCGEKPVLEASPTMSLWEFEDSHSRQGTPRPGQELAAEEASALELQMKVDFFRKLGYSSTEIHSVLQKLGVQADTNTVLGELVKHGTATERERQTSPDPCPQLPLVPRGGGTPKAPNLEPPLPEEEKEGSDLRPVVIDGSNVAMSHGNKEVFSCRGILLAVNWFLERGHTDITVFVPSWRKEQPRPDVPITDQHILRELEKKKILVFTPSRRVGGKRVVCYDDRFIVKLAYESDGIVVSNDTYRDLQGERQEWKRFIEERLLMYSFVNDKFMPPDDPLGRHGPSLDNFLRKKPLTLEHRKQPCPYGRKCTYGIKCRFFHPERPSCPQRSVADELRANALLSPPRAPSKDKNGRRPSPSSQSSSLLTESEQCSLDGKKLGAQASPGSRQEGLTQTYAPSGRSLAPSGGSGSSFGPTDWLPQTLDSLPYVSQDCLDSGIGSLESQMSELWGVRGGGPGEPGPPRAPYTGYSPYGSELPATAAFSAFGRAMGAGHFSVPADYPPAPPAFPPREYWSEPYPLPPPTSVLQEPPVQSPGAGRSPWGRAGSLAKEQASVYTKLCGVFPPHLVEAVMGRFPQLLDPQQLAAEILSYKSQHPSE
Excerpt: (§1) The full-length sequence of human Regnase-1 (UniProt ID: Q5D1E8) was used to prepare a construct having a FLAG tag on the N-terminal side and a recognition sequence for biotin ligase BirA on the C-terminal side (FL_Reg1) as a target protein. The above-mentioned Regnase-1 was expressed in mammalian Expi293 cells, purified with FLAG M2 agarose, and isolated by gel filtration chromatography. When biotinylation was required, methods from nonpatent documents (BMC biotechnology, 2008,8,41; and Protein Science, 1999,8,921-929) were used. […]
(§2) Using Kinase assay buffer III (manufactured by SignalChem) supplemented with 2 mM DTT, 100 μM sodium vanadate, and 2 mM manganese chloride, kinase (IKKβ (manufactured by SignalChem) or TBK1 (manufactured by SignalChem)) and Regnase-1 were reacted in the presence of 10 μM ATP at room temperature for 2 hours to perform a phosphorylation reaction.
(§3) Phosphorylated Regnase-1 was detected by the AlphaScreen system. After each of the above-mentioned phosphorylated Regnase-1 antibodies was added and reacted at room temperature for one hour, anti-FLAG AlphaLISA Acceptor Beads (manufactured by PerkinElmer) and Protein A AlphaScreen Donor Beads (manufactured by PerkinElmer) were added, and EnVision (manufactured by PerkinElmer) was used to measure the excited luminescence. As a result, phosphorylated Regnase-1 produced by the phosphorylation reaction by kinase was specifically detected, and signals were confirmed to be enhanced in a manner dependent on Regnase-1 and kinase concentrations (FIG. 24).
(§4) After mixing 2 nM of the above-mentioned Regnase-1 and the compound, phosphorylated Regnase-1 produced by the phosphorylation reaction was detected by the AlphaScreen system. As the results, the inhibition rate was calculated from the signals obtained when adding the compound at each concentration, by defining the signal obtained with Regnase-1 alone to be 100% inhibition rate, and the signal obtained when the same amount of solvent (DMSO) is added in place of the compound as 0% inhibition rate. The 50% inhibition concentration (μM) was calculated from the obtained dose response curve (Table 11).

[2] = molecular target: T2, ΔCTD_Reg1 (amino acids 1 to 546 of human Regnase-1) phosphorylation by IKKβ (Homo sapiens, UniProt Q5D1E8); assay: Regnase-1 phosphorylation inhibition by compounds (AlphaScreen), IKKβ, CTD-deficient Regnase-1; type: biochemical; conditions: Table 14; phosphorylation by IKKβ; read-out: Phosphorylation inhibition ΔCTD_Reg1, 50% inhibition concentration (IKKβ)
T2 construct: made in house; host or cells: Expi293 cells
T2 sequence (Q5D1E8 1-546): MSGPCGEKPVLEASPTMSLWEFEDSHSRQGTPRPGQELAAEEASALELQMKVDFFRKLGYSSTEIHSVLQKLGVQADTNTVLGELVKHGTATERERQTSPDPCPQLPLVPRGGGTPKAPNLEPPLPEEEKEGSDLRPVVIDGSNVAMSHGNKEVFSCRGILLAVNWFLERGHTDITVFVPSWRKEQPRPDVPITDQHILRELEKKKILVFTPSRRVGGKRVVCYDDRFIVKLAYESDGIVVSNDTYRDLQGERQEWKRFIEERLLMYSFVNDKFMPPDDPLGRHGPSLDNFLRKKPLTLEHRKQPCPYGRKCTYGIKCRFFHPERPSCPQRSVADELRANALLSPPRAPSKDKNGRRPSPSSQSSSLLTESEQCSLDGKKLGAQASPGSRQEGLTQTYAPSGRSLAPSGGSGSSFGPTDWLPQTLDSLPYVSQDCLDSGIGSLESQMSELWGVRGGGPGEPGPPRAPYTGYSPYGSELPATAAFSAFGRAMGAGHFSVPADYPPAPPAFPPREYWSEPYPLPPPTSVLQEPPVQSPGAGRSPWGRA
Method: Among the full-length human Regnase-1 sequence, the 1st to 546th amino acid sequence was prepared and made into a construct having a FLAG tag on the N-terminal side and a biotin ligase BirA recognition sequence on the C-terminal side (herein, a Regnase-1 lacking the C-terminal domain of Regnase-1 (amino acids 547 to 599 in the case of SEQ ID NO: 2) is referred to as “ΔCTD_Reg1”. “ΔCTD_Reg1” is different from “Regnase-1ΔCTD”, which is a C-terminal domain deletion variant resulting from a frameshift mutation caused by a 1 bp deletion at codon 517, as prepared in Example 13). In addition, the sequence from amino acids 301 to 599 of the full-length human Regnase-1 sequence was designated as C-terminal Regnase-1, and a construct having a FLAG tag on the N-terminal side and a recognition sequence for biotin ligase BirA on the C-terminal side was prepared (Reg1_301-599). The above-mentioned Regnase-1 was expressed in mammalian Expi293 cells, purified with FLAG M2 agarose, and isolated by gel filtration chromatography. When biotinylation was required, methods of nonpatent documents (BMC biotechnology, 2008,8,41; and Protein Science, 1999,8,921-929) were used.
as §2, §3, §4

[3] = molecular target: T3, binding between IKKβ and full-length Regnase-1 (FL_Reg1) (Homo sapiens, UniProt Q5D1E8); assay: Inhibition of kinase-Regnase-1 binding by the compounds (AlphaScreen), IKKβ; conditions: Table 14; binding between IKKβ and Regnase-1; read-out: Binding inhibition FL_Reg1, 50% inhibition concentration (IKKβ)
T3 construct: made in house; host or cells: Expi293 cells
T3 sequence (Q5D1E8 1-599): T1 sequence (Q5D1E8 1-599)
Method: (§5) As a target protein, a construct having a FLAG tag on the N-terminal side and a recognition sequence for biotin ligase BirA on the C-terminal side of the full-length sequence of human Regnase-1 (UniProt ID: Q5D1E8) was prepared (FL_Reg1). The above-mentioned Regnase-1 was expressed in mammalian Expi293 cells, purified with FLAG M2 agarose, and isolated by gel filtration chromatography. When biotinylation was required, methods from nonpatent documents (BMC biotechnology, 2008,8,41; and Protein Science, 1999,8,921-929) were used.
(§6) After mixing 2.5 nM of the above-mentioned Regnase-1 and the compound, 2.5 nM of IKKβ or TBK1 was added and reacted at room temperature for two hours. Then, Anti FLAG AlphaLISA Acceptor Beads (manufactured by PerkinElmer) and Glutathione-coated AlphaScreen Donor Beads (manufactured by PerkinElmer) were added, and excited luminescence was measured using En Vision (manufactured by PerkinElmer). As the results, the inhibition rate from the signals obtained when adding the compound at each concentration were calculated, by defining the signal obtained with Regnase-1 alone to be 100% inhibition rate, and the signal obtained when the same amount of solvent (DMSO) is added in place of the compound as 0% inhibition rate. The 50% inhibition concentration (μM) was calculated from the obtained dose response curve (Table 12).

[4] = molecular target: T4, FL_Reg1 (full-length human Regnase-1) phosphorylation by IKKβ (Homo sapiens, UniProt Q5D1E8); assay: Regnase-1 phosphorylation inhibition by compounds (AlphaScreen), IKKβ, full-length Regnase-1; type: biochemical; conditions: Table 14; phosphorylation by IKKβ; read-out: Phosphorylation inhibition FL_Reg1, 50% inhibition concentration (IKKβ)
T4 construct: made in house; host or cells: Expi293 cells
T4 sequence (Q5D1E8 1-599): T1 sequence (Q5D1E8 1-599)
Excerpt: as §1, §2, §3, §4

[5] = molecular target: T5, binding between TBK1 and full-length Regnase-1 (FL_Reg1) (Homo sapiens, UniProt Q5D1E8); assay: Inhibition of kinase-Regnase-1 binding by the compounds (AlphaScreen), TBK1; conditions: Table 13; binding between TBK1 and Regnase-1; read-out: Binding inhibition FL_Reg1, 50% inhibition concentration (TBK1)
T5 construct: made in house; host or cells: Expi293 cells
T5 sequence (Q5D1E8 1-599): T1 sequence (Q5D1E8 1-599)
Method: as §5, §6

[6] = molecular target: T6, C-terminal human Regnase-1 (amino acids 301 to 599) with N-terminal FLAG tag and C-terminal BirA recognition … (human, UniProt Q5D1E8 301-599); assay: cell-based or functional assay
T6 sequence: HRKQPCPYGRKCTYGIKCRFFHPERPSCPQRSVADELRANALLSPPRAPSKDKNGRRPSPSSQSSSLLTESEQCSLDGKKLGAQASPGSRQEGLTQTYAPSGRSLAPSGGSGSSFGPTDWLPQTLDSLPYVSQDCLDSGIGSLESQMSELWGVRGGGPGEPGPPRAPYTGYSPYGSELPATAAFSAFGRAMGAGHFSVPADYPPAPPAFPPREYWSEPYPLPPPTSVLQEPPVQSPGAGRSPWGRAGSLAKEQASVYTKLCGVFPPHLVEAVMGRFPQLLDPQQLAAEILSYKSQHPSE

[7] = molecular target: T7, C-terminal domain-deleted human Regnase-1 (amino acids 1 to 546) with N-terminal FLAG tag and C-terminal BirA … (human, UniProt Q5D1E8 1-546); assay: cell-based or functional assay
T7 sequence: T2 sequence (Q5D1E8 1-546)

[8] = molecular target: T8, full-length human Regnase-1 with a FLAG tag on the N-terminal side and a biotin ligase BirA recognition … (human, UniProt Q5D1E8 1-599, biotinylated at the BirA recognition sequence when required); assay: cell-based or functional assay
T8 sequence: T1 sequence (Q5D1E8 1-599)

[9] = molecular target: T6, C-terminal human Regnase-1 (amino acids …); assay: cell-based or functional assay; remark: listed apart in the source
[10] = molecular target: T7, C-terminal domain-deleted human …; assay: cell-based or functional assay; remark: listed apart in the source
[11] = molecular target: T8, full-length human Regnase-1 with a FLAG …; assay: cell-based or functional assay; remark: listed apart in the source
[12] = molecular target: T7, C-terminal domain-deleted human …; assay: cell-based or functional assay; remark: listed apart in the source
[13] = molecular target: T8, full-length human Regnase-1 with a FLAG …; assay: cell-based or functional assay; remark: listed apart in the source

Molecule	IC50 [1] [µM]	IC50 [2] [µM]	IC50 [3] [µM]	IC50 [4] [µM]	IC50 [5] [µM]	50% inhibition concentration, Regnase-1 phosphorylation by TBK1 (AlphaScreen) [6] [µM]	50% inhibition concentration, Regnase-1 phosphorylation by TBK1 (AlphaScreen) [7] [µM]	50% inhibition concentration, Regnase-1 phosphorylation by TBK1 (AlphaScreen) [8] [µM]	50% inhibition concentration, Regnase-1 phosphorylation by IKKβ (AlphaScreen) [9] [µM]	50% inhibition concentration, Regnase-1 phosphorylation by IKKβ (AlphaScreen) [10] [µM]	50% inhibition concentration, Regnase-1 phosphorylation by IKKβ (AlphaScreen) [11] [µM]	50% inhibition concentration, Regnase-1 phosphorylation by IKKβ (AlphaScreen) [12] [µM]	50% inhibition concentration, Regnase-1 phosphorylation by TBK1 (AlphaScreen) [12] [µM]	50% inhibition concentration, Regnase-1 phosphorylation by IKKβ (AlphaScreen) [13] [µM]	50% inhibition concentration, Regnase-1 phosphorylation by TBK1 (AlphaScreen) [13] [µM]
C[C@@H]1C(=O)N[C@@H](CCC(=O)O)C(=O)N[C@@H](CC(=O)O)C(=O)N[C@@H]([C@@H](C)O)C(=O)N2CCC[C@H]2C(=O)N[C@@H](CCC(=O)O)C(=O)N[C@@H](CC(=O)O)C(=O)N[C@@H](CC(=O)O)C(=O)N[C@@H](Cc2c[nH]cn2)C(=O)N[C@H](C(=O)N2CCCC2)CC(=O)N1C [PP25] (HELM PEPTIDE1{[C[C@H](C(=O)[*:2])N(C)[*:1]].E.D.T.P.E.D.D.H.D.[C1CCN([*:1])C1]}$PEPTIDE1,PEPTIDE1,1:R1-10:R3$$$V2.0)	18.9	47.7	> 62.1	27	13.1	–	–	–	–	–	–	–	–	–	–
B1	–	–	–	–	–	> 62.1	> 62.1	54.5	> 62.1	> 62.1	28.1	> 62.1	> 62.1	28.1	54.5
